Molecular target: NY-ESO-1 αβTCR with murinized domain 3 in β-chain, paired with the human TCRα-chain (human)
Experiment: cell-based or functional assay

In the case of H57-597 (antibody), the percentage of lysis (standard chromium release assay) is reported as 4 fold.
